Measured values reported in paper PMC5588873 (Cell reports, 2017).
Values belong to the binder of their own block, whether it stands above or below them.

Biological target: TNRC6A (human (endogenous in HeLa), UniProt Q8NDV7 1-1962)
Assay: affinity purification with mass spectrometry

Sequence of TNRC6A (Q8NDV7 whole entry): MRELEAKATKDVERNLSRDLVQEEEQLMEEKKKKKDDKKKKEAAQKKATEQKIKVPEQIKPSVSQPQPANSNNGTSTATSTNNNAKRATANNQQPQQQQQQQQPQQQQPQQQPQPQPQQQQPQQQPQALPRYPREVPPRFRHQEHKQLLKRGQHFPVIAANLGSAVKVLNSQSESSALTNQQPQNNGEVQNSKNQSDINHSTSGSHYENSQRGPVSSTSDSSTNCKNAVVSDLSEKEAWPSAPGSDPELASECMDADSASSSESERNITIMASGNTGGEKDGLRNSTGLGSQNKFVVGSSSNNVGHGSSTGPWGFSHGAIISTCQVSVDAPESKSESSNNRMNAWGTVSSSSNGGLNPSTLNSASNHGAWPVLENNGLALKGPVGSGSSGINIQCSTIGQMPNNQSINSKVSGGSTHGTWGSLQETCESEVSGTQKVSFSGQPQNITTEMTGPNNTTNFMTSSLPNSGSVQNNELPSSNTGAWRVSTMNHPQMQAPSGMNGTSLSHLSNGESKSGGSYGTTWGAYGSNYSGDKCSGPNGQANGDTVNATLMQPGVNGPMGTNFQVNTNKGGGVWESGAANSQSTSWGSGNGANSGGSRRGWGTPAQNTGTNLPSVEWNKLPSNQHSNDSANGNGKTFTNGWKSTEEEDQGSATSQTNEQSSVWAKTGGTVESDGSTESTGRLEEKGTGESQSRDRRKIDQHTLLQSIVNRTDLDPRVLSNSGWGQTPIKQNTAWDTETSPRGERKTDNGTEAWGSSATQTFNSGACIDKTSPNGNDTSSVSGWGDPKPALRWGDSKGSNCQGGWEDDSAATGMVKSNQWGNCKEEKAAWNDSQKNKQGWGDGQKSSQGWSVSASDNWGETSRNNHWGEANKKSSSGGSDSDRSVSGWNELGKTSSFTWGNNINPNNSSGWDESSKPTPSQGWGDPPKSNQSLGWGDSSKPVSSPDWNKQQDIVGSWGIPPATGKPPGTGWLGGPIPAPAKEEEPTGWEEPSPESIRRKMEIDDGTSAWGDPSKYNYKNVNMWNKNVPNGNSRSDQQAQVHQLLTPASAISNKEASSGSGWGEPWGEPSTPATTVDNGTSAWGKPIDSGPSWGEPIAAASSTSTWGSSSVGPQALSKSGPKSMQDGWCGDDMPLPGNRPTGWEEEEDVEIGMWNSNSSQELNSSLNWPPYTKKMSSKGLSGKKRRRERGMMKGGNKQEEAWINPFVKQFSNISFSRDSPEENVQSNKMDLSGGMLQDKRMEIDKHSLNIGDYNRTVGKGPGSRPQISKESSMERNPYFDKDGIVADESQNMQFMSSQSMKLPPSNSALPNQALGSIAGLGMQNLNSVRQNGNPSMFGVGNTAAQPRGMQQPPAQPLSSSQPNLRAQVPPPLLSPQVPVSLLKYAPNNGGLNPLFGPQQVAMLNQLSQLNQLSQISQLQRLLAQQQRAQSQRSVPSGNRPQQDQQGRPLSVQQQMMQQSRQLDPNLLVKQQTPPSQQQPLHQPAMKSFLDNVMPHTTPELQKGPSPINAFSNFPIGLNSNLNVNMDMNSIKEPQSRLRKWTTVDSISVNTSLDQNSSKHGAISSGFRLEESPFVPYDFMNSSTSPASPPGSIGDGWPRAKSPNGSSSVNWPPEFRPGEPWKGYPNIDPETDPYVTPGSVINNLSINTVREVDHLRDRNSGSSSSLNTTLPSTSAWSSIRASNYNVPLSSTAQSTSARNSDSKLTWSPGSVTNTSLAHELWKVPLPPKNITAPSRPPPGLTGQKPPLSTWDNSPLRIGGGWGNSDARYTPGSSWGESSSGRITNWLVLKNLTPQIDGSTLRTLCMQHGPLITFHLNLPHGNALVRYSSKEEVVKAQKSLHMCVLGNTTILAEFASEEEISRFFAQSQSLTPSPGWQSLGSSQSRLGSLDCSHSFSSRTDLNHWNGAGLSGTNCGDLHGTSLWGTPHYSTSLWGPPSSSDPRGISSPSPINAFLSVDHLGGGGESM

stoichiometry N: 2.2 per TNRC6A (=1)
B1: AGO2 (natural protein)
chain: not shown

stoichiometry N: ~1.52 per TNRC6A (=1)
B2: TP53BP1 (natural protein, human (endogenous in HeLa), UniProt Q12888 1-1972, looked up)
chain: MDPTGSQLDSDFSQQDTPCLIIEDSQPESQVLEDDSGSHFSMLSRHLPNLQTHKENPVLDVVSNPEQTAGEERGDGNSGFNEHLKENKVADPVDSSNLDTCGSISQVIEQLPQPNRTSSVLGMSVESAPAVEEEKGEELEQKEKEKEEDTSGNTTHSLGAEDTASSQLGFGVLELSQSQDVEENTVPYEVDKEQLQSVTTNSGYTRLSDVDANTAIKHEEQSNEDIPIAEQSSKDIPVTAQPSKDVHVVKEQNPPPARSEDMPFSPKASVAAMEAKEQLSAQELMESGLQIQKSPEPEVLSTQEDLFDQSNKTVSSDGCSTPSREEGGCSLASTPATTLHLLQLSGQRSLVQDSLSTNSSDLVAPSPDAFRSTPFIVPSSPTEQEGRQDKPMDTSVLSEEGGEPFQKKLQSGEPVELENPPLLPESTVSPQASTPISQSTPVFPPGSLPIPSQPQFSHDIFIPSPSLEEQSNDGKKDGDMHSSSLTVECSKTSEIEPKNSPEDLGLSLTGDSCKLMLSTSEYSQSPKMESLSSHRIDEDGENTQIEDTEPMSPVLNSKFVPAENDSILMNPAQDGEVQLSQNDDKTKGDDTDTRDDISILATGCKGREETVAEDVCIDLTCDSGSQAVPSPATRSEALSSVLDQEEAMEIKEHHPEEGSSGSEVEEIPETPCESQGEELKEENMESVPLHLSLTETQSQGLCLQKEMPKKECSEAMEVETSVISIDSPQKLAILDQELEHKEQEAWEEATSEDSSVVIVDVKEPSPRVDVSCEPLEGVEKCSDSQSWEDIAPEIEPCAENRLDTKEEKSVEYEGDLKSGTAETEPVEQDSSQPSLPLVRADDPLRLDQELQQPQTQEKTSNSLTEDSKMANAKQLSSDAEAQKLGKPSAHASQSFCESSSETPFHFTLPKEGDIIPPLTGATPPLIGHLKLEPKRHSTPIGISNYPESTIATSDVMSESMVETHDPILGSGKGDSGAAPDVDDKLCLRMKLVSPETEASEESLQFNLEKPATGERKNGSTAVAESVASPQKTMSVLSCICEARQENEARSEDPPTTPIRGNLLHFPSSQGEEEKEKLEGDHTIRQSQQPMKPISPVKDPVSPASQKMVIQGPSSPQGEAMVTDVLEDQKEGRSTNKENPSKALIERPSQNNIGIQTMECSLRVPETVSAATQTIKNVCEQGTSTVDQNFGKQDATVQTERGSGEKPVSAPGDDTESLHSQGEEEFDMPQPPHGHVLHRHMRTIREVRTLVTRVITDVYYVDGTEVERKVTEETEEPIVECQECETEVSPSQTGGSSGDLGDISSFSSKASSLHRTSSGTSLSAMHSSGSSGKGAGPLRGKTSGTEPADFALPSSRGGPGKLSPRKGVSQTGTPVCEEDGDAGLGIRQGGKAPVTPRGRGRRGRPPSRTTGTRETAVPGPLGIEDISPNLSPDDKSFSRVVPRVPDSTRRTDVGAGALRRSDSPEIPFQAAAGPSDGLDASSPGNSFVGLRVVAKWSSNGYFYSGKITRDVGAGKYKLLFDDGYECDVLGKDILLCDPIPLDTEVTALSEDEYFSAGVVKGHRKESGELYYSIEKEGQRKWYKRMAVILSLEQGNRLREQYGLGPYEAVTPLTKAADISLDNLVEGKRKRRSNVSSPATPTASSSSSTTPTRKITESPRASMGVLSGKRKLITSEEERSPAKRGRKSATVKPGAVGAGEFVSPCESGDNTGEPSALEEQRGPLPLNKTLFLGYAFLLTMATTSDKLASRSKLPDGPTGSSEEEEEFLEIPPFNKQYTESQLRAGAGYILEDFNEAQCNTAYQCLLIADQHCRTRKYFLCLASGIPCVSHVWVHDSCHANQLQNYRNYLLPAGYSLEEQRILDWQPRENPFQNLKVLLVSDQQQNFLELWSEILMTGGAASVKQHHSSAHNKDIALGVFDVVVTDPSCPASVLKCAEALQLPVVSQEWVIQCLIVGERIGFKQHPKYKHDYVSH
